Measured values from patent publication US5885821.

How the values were obtained:
[1] = target: chimeric protein βGal-139S(FM)PPH84 (E. coli; human)
[2] = target: chimeric protein βGal-117S4HPPH34 (E. coli; human)

Kex2-660 (enzyme) was tested, and the recovery rate of hPTH(1-84) excised from the chimeric protein (HPLC) [1] was 75% and the excision efficiency of hPTH(1-34) from the chimeric protein [2] was over 90%.
